Measurements published in patent publication CN109810193A (SHENZHEN INST ADV TECH, dated 2019).

Assays:
[1] = target: sDR5-Fc-biotin (UniProt O14763); assay: competition ELISA: sDR5-Fc-biotin 7.5 ug/ml preincubated with 6C93D6 30 ug/ml, added to coated human TRAIL (5 ug/ml); Streptavidin-HRP; the OD is the remaining binding of the complex to TRAIL
[2] = target: T1, 人DR4抗原 (human, UniProt O00220 24-239, limits assumed); assay: ELISA, DR4 coated, goat anti-mouse IgG-HRP, OD450
T1 construct: also called death receptor 4
T1 sequence (looked up): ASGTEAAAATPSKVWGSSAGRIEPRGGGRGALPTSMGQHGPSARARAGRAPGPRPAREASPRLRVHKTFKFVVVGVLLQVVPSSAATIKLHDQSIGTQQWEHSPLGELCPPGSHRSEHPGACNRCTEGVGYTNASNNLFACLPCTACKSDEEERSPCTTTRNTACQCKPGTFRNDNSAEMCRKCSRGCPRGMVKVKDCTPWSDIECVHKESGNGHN

[3] = target: T2, sDR5-Fc蛋白 (UniProt O14763 56-182, limits assumed); assay: BLI (OCTET K2), sDR5-Fc 10 ug/ml captured on AHC sensors, 6C93D6 at 76-4.75 nM in solution
T2 construct: Immunogen and BLI ligand; not shown: it was captured on AHC (Anti-hIgG Fc Capture) sensors

[4] = target: jurkat细胞表面的DR5蛋白 (UniProt O14763 56-440, limits assumed); assay: cell-based or functional assay

- OD450 [1]: 0.105
- binding result [2]: no binding
- Kd [3]: 6.77 nM
- 诱导HepaRG细胞凋亡的EC50 (1ug/ml交联剂 anti-mouse IgG Fc antibody; MTS/PMS, A490-A630) [4]: 68.5 pg/mL
- 诱导HepaRG细胞凋亡的EC50 (无交联剂; MTS/PMS, A490-A630) [4]: 1.1 µg/mL
B1: 6C93D6抗体 (抗DR5的单克隆抗体) (antibody, V domains shown)
VH: EVQLQQSGPDLVKPGASVKISCKASGYSFTGHYMHWVKQSHGQSLEWIGRVNPNNGGTGYNQKFKDKAILTVDKPSSTAYMELRSLTSEDSAVYYCARNGAYYRSDGNYFDYWGQGTTLTVSS
VL: DIVLTQSTPSLAVSLGQRATISCRASESVDSYGNSFMHWFQQKPGQPPKLLIYRASNLESGIPARFSGSGSRTDFTLTINPVEADDVATYYCQQSNEDPYTFGGGTKLEIK
notes: Mouse hybridoma monoclonal antibody purified from ascites on Protein G
